Laboratory results as given in patent US20240158497A1 (published 2024).

B1: mAb18445 (antibody, V domains shown)
VH: QVQLQESGPGLVKPSQTLSLTCTVSGGSISSGGDYWSWIRQLPGKGLEWIGYIYYSGSAYYNPSLKSRGTISIDTSKNQFSLKLTSVTAADTAVYFCVKLRFLEWFLGGWFGPWGQGTLVTVSS
VL: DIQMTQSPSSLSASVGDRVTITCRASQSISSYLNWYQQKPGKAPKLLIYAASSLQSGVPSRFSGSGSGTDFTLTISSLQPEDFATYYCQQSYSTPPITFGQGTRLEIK
notes: Conventional anti-LEPR antibody; also called mAB18445 (anti-LEPR mAb)
B2: mAb18446 (antibody, V domains shown)
VH: EVQLVESGGGLVQPGGSLRLSCAASGFTFSNYGMTWVRQAPGKGLEWVSAITGGGGSTYYSNSVKGRFTISRDNSKNTVYLRMNSVRAEDTAVYYCAKYKWNFVDDWGQGTTVTVSS
VL: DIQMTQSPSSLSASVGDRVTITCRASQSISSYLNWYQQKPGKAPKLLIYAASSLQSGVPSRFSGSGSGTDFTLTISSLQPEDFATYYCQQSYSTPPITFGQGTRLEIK
notes: Conventional anti-LEPR antibody; also called mAB18446 (anti-LEPR mAb)
B3: mAb16683 (antibody, V domains shown)
VH: QVQLVESGGGLVKPGGSLRLSCAASGFTFSDYYMTWIRQTPGKGLDWVSYISSSGTNKYNADSVKGRFTISRDNAKNSLYLQMNSLRAEDTAVYYCVRDPPWGMDVWGQGTTVTVSS
VL: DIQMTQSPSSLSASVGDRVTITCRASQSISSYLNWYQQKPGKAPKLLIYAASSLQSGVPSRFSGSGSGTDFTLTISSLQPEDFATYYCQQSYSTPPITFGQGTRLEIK
notes: Conventional anti-GP130 antibody; also called mAb16683 (anti-GP130 mAb)

How the values were obtained:
[1] = molecular target: T1, extracellular domain of human LEPR, GPI-anchored, on HEK293/hLEPR-GPI cells (human, UniProt P48357 22-839, GPI anchor at the C-terminus ; GPI anchor at the C-terminus, added through the carboxypeptidase M signal peptide. The N-terminal myc-myc tag is not written.); experiment: FACS, 200 nM antibody on HEK293/hLEPR-GPI cells, no Leptin
T1 sequence: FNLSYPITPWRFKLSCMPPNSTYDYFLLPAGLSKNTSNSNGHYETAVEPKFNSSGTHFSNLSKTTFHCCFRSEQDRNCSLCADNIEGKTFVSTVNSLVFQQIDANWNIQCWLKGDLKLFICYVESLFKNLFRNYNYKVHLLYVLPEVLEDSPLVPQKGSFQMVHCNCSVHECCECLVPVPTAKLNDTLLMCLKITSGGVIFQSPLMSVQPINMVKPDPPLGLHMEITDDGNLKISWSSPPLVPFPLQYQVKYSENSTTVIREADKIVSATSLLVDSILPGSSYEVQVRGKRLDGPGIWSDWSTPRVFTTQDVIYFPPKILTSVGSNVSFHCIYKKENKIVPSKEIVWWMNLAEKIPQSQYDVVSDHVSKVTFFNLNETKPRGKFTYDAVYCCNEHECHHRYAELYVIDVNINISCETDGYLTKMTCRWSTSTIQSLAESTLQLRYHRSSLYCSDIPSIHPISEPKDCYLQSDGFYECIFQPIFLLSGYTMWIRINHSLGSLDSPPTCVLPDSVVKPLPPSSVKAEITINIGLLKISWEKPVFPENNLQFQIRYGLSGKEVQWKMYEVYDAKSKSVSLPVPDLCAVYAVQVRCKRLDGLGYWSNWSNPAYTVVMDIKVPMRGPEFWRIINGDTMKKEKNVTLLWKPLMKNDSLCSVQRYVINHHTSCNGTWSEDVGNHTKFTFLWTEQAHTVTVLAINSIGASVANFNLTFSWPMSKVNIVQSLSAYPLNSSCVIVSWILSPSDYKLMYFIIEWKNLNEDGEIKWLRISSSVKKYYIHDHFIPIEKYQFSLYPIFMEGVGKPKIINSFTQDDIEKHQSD
Protocol: (§1) For the FACS analysis, 0.5×10^6 cells/well of HEK293 parental cells, HEK293/Stat3-luc/gp130-2 X Sort cells, and HEK293/hLEPR-GPI cells, were incubated with 200 nM of the conventional antibodies against either GP130 or LEPR or with LEPRxGP130 bispecific antibodies, along with isotype control antibodies at 4° C. in PBS (without calcium and magnesium) containing 2% FBS.
(§2) Cells were fixed using BD CytoFix™ (Becton Dickinson, #554655) and analyzed on an IQue® (Intellicyt) Flow Cytometer. Unstained and secondary antibody alone controls were also tested for all cell lines. The results were analyzed using ForeCyt® (IntelliCyt) and FlowJo version 10 softwares to determine the geometric means of fluorescence for viable cells.

[2] = molecular target: T1, extracellular domain of human LEPR, …; experiment: FACS, 200 nM antibody on HEK293/hLEPR-GPI cells, 1 µM Leptin
Protocol: as §1, §2

[3] = molecular target: T2, full length human GP130 (L2V natural variant) on HEK293/Stat3-luc/gp130-2X Sort cells (human, UniProt P40189 23-918); experiment: FACS, 200 nM antibody on HEK293/gp130 2X Sort cells
T2 construct: whole, on cells; Stably over-expressed on HEK293 cells, sorted twice for high expression; also called HEK293/gp130 2X Sort
T2 sequence (looked up): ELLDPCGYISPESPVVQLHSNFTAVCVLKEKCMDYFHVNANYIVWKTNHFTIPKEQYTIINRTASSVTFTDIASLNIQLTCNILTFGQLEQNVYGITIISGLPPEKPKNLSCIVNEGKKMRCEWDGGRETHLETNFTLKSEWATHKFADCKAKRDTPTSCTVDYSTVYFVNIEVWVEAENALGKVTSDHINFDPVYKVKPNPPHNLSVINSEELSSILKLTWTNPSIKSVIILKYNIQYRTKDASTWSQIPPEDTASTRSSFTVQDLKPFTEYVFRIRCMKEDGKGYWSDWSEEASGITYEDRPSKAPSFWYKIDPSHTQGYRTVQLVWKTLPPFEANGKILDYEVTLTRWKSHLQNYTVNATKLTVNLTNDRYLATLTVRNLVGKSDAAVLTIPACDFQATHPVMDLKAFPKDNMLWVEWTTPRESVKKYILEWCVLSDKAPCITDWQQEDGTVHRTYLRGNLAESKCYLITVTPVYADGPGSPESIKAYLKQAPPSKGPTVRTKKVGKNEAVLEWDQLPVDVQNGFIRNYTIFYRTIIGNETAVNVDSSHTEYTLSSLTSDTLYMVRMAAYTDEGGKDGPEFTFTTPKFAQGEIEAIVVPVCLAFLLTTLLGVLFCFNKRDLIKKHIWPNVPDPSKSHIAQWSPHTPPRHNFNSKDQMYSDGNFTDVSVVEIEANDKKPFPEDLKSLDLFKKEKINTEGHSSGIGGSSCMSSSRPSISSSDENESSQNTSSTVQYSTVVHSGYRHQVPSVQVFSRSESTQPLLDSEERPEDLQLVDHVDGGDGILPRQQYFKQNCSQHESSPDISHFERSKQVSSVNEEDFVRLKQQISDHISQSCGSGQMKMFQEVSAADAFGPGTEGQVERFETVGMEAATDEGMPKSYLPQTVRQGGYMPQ
Protocol: as §1, §2

| Binding Ratio, normalized to unstained sample (FL4-A) [1] [fold] | Binding Ratio, normalized to unstained sample (FL4-A) [2] [fold] | Binding Ratio, normalized to unstained sample (FL4-A) [3] [fold] | Binder |
| --- | --- | --- | --- |
| 4710 | 4250 | – | B1 |
| 7020 | 6390 | – | B2 |
| 21 | – | 235 | B3 |
